Where “and” joins values, the source holds several entries; their conditions need not be identical. Equal values may be shown once.
Key:
[1] = target: high-affinity cell surface thrombin receptor on NIL cells (hamster fibroblasts) (hamster); assay: cell-based or functional assay
[2] = target: high-affinity cell surface thrombin receptor on mouse embryo (ME) cells (mouse) (UniProt P30558); assay: cell-based or functional assay
[3] = target: high-affinity cell surface thrombin receptor on mouse embryo (ME) cells (mouse) (UniProt P30558); assay: competition with [^125I]-alpha-thrombin (1 nM) on quiescent ME cells
[4] = target: high-affinity cell surface thrombin receptor on mouse embryo (ME) cells (mouse) (UniProt P30558); assay: competition with [^125I]-alpha-thrombin (1 nM) on quiescent ME cells; at 40 nM peptide
[5] = target: high-affinity cell surface thrombin receptor on mouse embryo (ME) cells (mouse) (UniProt P30558); assay: competition with 0.3 nM [^125I]-alpha-thrombin on ME cells; p508-530 from 8 to 4000 nM
[6] = target: high-affinity cell surface thrombin receptor on mouse embryo (ME) cells (mouse) (UniProt P30558); assay: Scatchard analysis of direct binding of [^125I]-labelled peptide to cells (data not shown)
[7] = target: high-affinity cell surface thrombin receptor on mouse embryo (ME) cells (mouse) (UniProt P30558); assay: competition with [^125I]-alpha-thrombin (1 nM) for specific binding to quiescent ME cells, 23 C
[8] = target: high-affinity cell surface thrombin receptor on mouse embryo (ME) cells (mouse) (UniProt P30558); assay: competition with [^125I]-alpha-thrombin on ME cells
[9] = target: high-affinity cell surface thrombin receptor on mouse embryo (ME) cells (mouse) (UniProt P30558); assay: competition with [^125I]-alpha-thrombin on ME cells; reference p508-530
[10] = target: high-affinity cell surface thrombin receptor on mouse embryo (ME) cells (mouse) (UniProt P30558); assay: competition with [^125I]-alpha-thrombin (1 nM) on quiescent ME cells; at 800 nM peptide

| increase in DNA synthesis over controls in NIL cells in the presence of 25 ng/ml PMA [1] | concentration of p508-530 at which stimulation of ME cells was observed [2] | increase in incorporation of [^3H]-thymidine into DNA in ME cells, 0.1 uM p508-530 with 2 nM alpha-thrombin, against cultures treated with alpha-thrombin alone [2] | increase in incorporation of [^3H]-thymidine into DNA in ME cells, 0.1 uM p508-530 with 2 nM alpha-thrombin, against untreated cultures [2] | concentration at Maximal % Inhibition [3] | Maximal % Inhibition [4] | percent of specific [^125I]-alpha-thrombin binding competed [5] | Kd [6] | Concentration Required for 30% Inhibition [7] | percent of [^125I]-alpha-thrombin binding competed [8] | fold higher concentration for 30% inhibition than p508-530 [9] | Maximal % Inhibition [10] | Substance |
| --- | --- | --- | --- | --- | --- | --- | --- | --- | --- | --- | --- | --- |
| 3.5 fold | 12.5 nM and 100 nM | > 2 fold | 6 fold | 40 nM | 78% | 30 to 70% | 60 nM | 6 nM |  |  |  | synthetic peptide p508-530 (residues 508 to 530 of human prothrombin) |
|  |  |  |  | 800 nM |  |  |  | 200 nM | 30 to 50% | 33 fold | 51% | synthetic peptide p519-530 (residues 519 to 530 of the B-chain region of human prothrombin) |
